Positions of bridges follow the written chain, without caps; N, C: chain ends. No end group written: not given here.
B1: AHNP (anti-HER2/neu peptide mimetic), peptide 1, FCDGFYACYMDV-NH2 (peptide)
peptide: FCDGFYACYMDV-NH2
modifications: disulfide 2-8
notes: Designed from the CDR-H3 loop of rhumAb 4D5; also called anti-HER2 peptide
B2: AHNP analogue 6, FCDGFYACYKDV-OH (peptide)
peptide: FCDGFYACYKDV-OH
modifications: disulfide 2-8 (inferred)
notes: Met of peptide 2 replaced by Lys; also called peptide 6
B3: AHNP analogue 3, YCDGFYACYMDV-NH2 (peptide)
peptide: YCDGFYACYMDV-NH2
modifications: disulfide 2-8 (inferred)
notes: N-terminal Phe of AHNP replaced with Tyr; also called peptide 3
B4: AHNP analogue 7, GFCDGFYACYMDV-OH (peptide)
peptide: GFCDGFYACYMDV-OH
modifications: disulfide 3-9 (inferred)
notes: Gly placed at the N-terminus before Phe1; also called peptide 7
B5: AHNP analogue 9, FCDGFYACYMDV-OH (linear, not cyclized) (peptide)
peptide: FCDGFYACYMDV-OH
modifications: cysteine pairing not given here
notes: also called peptide 9; linear analogue 9
B6: AHNP analogue 5, FCDGFYACYMDVK-NH2 (peptide)
peptide: FCDGFYACYMDVK-NH2
modifications: disulfide 2-8 (inferred)
notes: Lys added as C-terminal residue; also called peptide 5
B7: AHNP analogue 8, FCGDGFYACYMDV-OH (peptide)
peptide: FCGDGFYACYMDV-OH
modifications: disulfide 2-9 (inferred)
notes: First AHNP analogue designed; has one more turn Gly than peptide 2; also called peptide 8

Columns and labels:
[1] = target: human HER2 receptor overexpressed on T6-17 cells (NIH3T3-derived) (human, UniProt P04626 23-1255); experiment: cell-based or functional assay
[2] = target: T1, Recombinant purified HER2 receptor composed of the ectodomain of HER2 fused to the Fc of human IgG (human, UniProt P04626 23-652, limits assumed); experiment: Biacore SPR, HER2 ectodomain-Fc immobilized, peptide as analyte
T1 construct: extracellular domain; Provided by Dr. Che Law, Xcyte Therapeutics; amine-coupled to the Biacore chip (3500 RU); also called immobilized HER2; p185; not shown: Fc of human IgG
Description: (§1) Binding experiments were performed with the surface plasmon resonance based biosensor instrument Biacore 3000 (Biacore AB, Uppsala, Sweden) at 25° C. Recombinant purified HER2 receptor composed of the ectodomain of HER2 fused to the Fc of human IgG was provided by Dr. Che Law, Xcyte Therapeutics, Seattle, Wash. Immobilization of HER2 in the sensor surface was performed following the standard amine coupling procedure according to manufacturer's instructions. Briefly, 35 μL of a solution containing 0.2M N-ethyl-N-(dimethylaminopropyl) carbodiimide (EDC) and 0.05 M N-hydroxysuccinimide (NHS) were injected at a flow rate of 5 μL/min to activate carboxyl groups on the sensor chip surface. HER2 (40 ng/mL in 10 mM NaOAc buffer, pH 5.0) was flowed over the chip surface at a flow rate of 20 μL/min until the desired level bound protein was reached. Unreacted protein washed out and unreacted activated groups were blocked by the injection of 35 μL of 1 M ethanolamine at 5 μL/min. […] A reference surface was generated simultaneously under the same conditions but without HER2 injection and used as a blank to correct for instrument and buffer artifacts. Peptides were injected at variable concentrations at 20 μL/min flow rate and binding to the HER2 receptor immobilized on the chip was monitored in real time. Each sensorgram consists of an association phase (first 240s), reflecting binding of the injected peptide to the receptor, followed by a dissociation phase (300s), during which the running buffer is passed over the chip and the bound peptide is being washed off the receptor surface.

[3] = target: T1, Recombinant purified HER2 receptor …; experiment: Biacore SPR, immobilized HER2-Fc
Description: as §1

[4] = target: T1, Recombinant purified HER2 receptor …; experiment: Biacore competition, AHNP preinjected 0-90 µM, then 1 nM rhumAb 4D5 (competitor) on immobilized HER2-Fc; initial rate of antibody binding
Description: as §1, with “Each sensorgram consists of an association phase (first 240s), reflecting binding of the injected peptide to the receptor, followed by a dissociation phase (300s), during which the running buffer is passed over the chip and the bound peptide is being washed off the receptor surface.” left out

Binder	% inhibition (inhibition of T6-17 cell proliferation in MTT assays, 1 µg/mL peptide) [1]	Kd [2]	koff [2]	kon [2]	fold higher affinity than the linear analogue 9 [3]	fold increase in binding affinity against peptide 2 [3]	IC50 [4]	fold decrease in affinity (Lys substituted for Met) [3]	fold improvement in binding (Phe replaced with Tyr) [3]
FCDGFYACYMDV-OH (disulfide 2-8 (inferred), also called peptide 2) [AHNP analogue 2, FCDGFYACYMDV-OH (cyclic)]	22.3%	650 nM	0.000643 s⁻¹	990 M⁻¹ s⁻¹	> 5 fold	–	–	–	–
B1	35.5%	320 nM	0.000453 s⁻¹	1410 M⁻¹ s⁻¹	–	> 2 fold	3400 nM	–	–
B2	8.4%	5700 nM	0.00125 s⁻¹	219 M⁻¹ s⁻¹	–	–	–	8.8 fold	–
B3	59.6%	150 nM	0.000294 s⁻¹	1960 M⁻¹ s⁻¹	–	–	–	–	> 2 fold
B4	–	730 nM	0.000808 s⁻¹	1110 M⁻¹ s⁻¹	–	–	–	–	–
B5	12.8%	3560 nM	0.00106 s⁻¹	298 M⁻¹ s⁻¹	–	–	–	–	–
B6	–	830 nM	0.000512 s⁻¹	617 M⁻¹ s⁻¹	–	–	–	–	–
B7	18.4%	760 nM	0.000701 s⁻¹	922 M⁻¹ s⁻¹	–	–	–	–	–

Source: patent publication US20070207086A1 (published 2007)
